PMC12630357 (The Journal of Biological Chemistry, 2025)

Target: T1, 6xHis-CotV (Bacillus subtilis 168, UniProt Q08309 1-128)
T1 construct: CotV, spore coat (crust) protein of Bacillus subtilis strain 168; native ORF printed as 129 residues; residues 1-125 resolved in the model; Forms a helical filament; the number of copies is not fixed; also called 6xHis-tagged CotV; CotV1; source: E. coli BL21(DE3), coexpressed with CotW from pET-DUET, Ni-NTA purified as the CotVW complex; not shown: 6xHis (within an N-terminal extension of 14 …)
T1 sequence (looked up): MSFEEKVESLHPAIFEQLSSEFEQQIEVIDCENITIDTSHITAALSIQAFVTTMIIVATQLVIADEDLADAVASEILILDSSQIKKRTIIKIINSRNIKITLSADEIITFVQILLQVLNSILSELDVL
Experiment: cryo-EM structure; helical reconstruction of 6xHis-tagged CotVW filaments, 3.32 Å; twist 153.09°, rise 9.52 Å, one CotV-CotW heterodimer per asymmetric unit
Settings: both partners purified

B1: CotW (natural protein, Bacillus subtilis 168, UniProt Q08310 1-105, looked up)
chain: MSDNDKFKEELAKLPEVDPMTKMLVQNIFSKHGVTKDKMKKVSDEEKEMLLNLVKDLQAKSQALIENQKKKKEEAAAQEQKNTKPLSRREQLIEQIRQRRKNDNN
notes: CotW, spore coat (crust) protein of Bacillus subtilis strain 168; native ORF 105 residues; residues 18-98 resolved in the model; also called CotW1; CotW monomer; source: E. coli BL21(DE3), coexpressed with 6xHis-CotV from pET-DUET, co-purified on Ni-NTA as the CotVW complex; not shown: single added tyrosine, C-terminal, kept
- stoichiometry N: 1
